Data taken from patent US20230322950A1 (Hoffmann-La Roche, published 2023).
Like-named read-outs stand apart in the source and are kept apart here.

Key:
[1] = target: VH1VL1-CD8ATD-CD137CSD-CD3zSSD fusion; assay: cell-based or functional assay
[2] = target: VH2VL1-CD8ATD-CD137CSD-CD3zSSD fusion; assay: cell-based or functional assay
[3] = target: VL1VH3-CD8ATD-CD137CSD-CD3zSSD fusion; assay: cell-based or functional assay
[4] = target: VH3VL1-CD8ATD-CD137CSD-CD3zSSD fusion; assay: cell-based or functional assay
[5] = target: T1, VH1VL1-CD8ATD-CD137CSD-CD3zSSD fusion; assay: Jurkat NFAT luciferase reporter assay with CD20-positive WSUDLCL2 target cells (5:1); no reporter activation, which the filing uses to exclude unspecific binding
T1 construct: Chimeric antigen receptor expressed on Jurkat NFAT reporter cells; also called VH1VL1 P329G-CAR
T1 sequence (chain, as listed by the source): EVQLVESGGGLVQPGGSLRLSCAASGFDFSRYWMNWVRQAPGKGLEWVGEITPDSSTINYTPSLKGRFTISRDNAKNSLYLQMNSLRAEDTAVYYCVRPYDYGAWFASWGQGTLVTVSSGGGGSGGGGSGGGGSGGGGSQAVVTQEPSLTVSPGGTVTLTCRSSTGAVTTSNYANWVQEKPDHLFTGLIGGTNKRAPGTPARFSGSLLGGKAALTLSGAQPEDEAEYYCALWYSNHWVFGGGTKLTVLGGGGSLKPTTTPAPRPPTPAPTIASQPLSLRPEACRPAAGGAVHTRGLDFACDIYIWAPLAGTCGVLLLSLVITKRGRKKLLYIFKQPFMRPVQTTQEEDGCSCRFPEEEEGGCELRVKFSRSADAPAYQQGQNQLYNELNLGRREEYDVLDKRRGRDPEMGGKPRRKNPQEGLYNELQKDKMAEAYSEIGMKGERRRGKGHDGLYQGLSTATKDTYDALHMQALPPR
Experimental: (§1) Binding of the CAR to an immobilized adapter molecule (e.g. a tumor antigen bound adapter molecule) leads to CAR crosslinking resulting in T cell activation and in the expression of luciferase. […] The 384 well plate was centrifuged for 1 min at 300g and RT and incubated at 37° C. and 5% CO₂ in a humidity atmosphere. After 7h incubation 20% of the final volume of ONE-Glo™ Luciferase Assay (E6120, Promega) was added, and plates were centrifuged for 1 min at 350×g. Afterwards, the relative luminescence units (RLU) per s/well were measured immediately using a Tecan microplate reader. Concentration-response curves were fitted and EC₅₀ values were calculated using GraphPadPrism version 7. As p value the New England Journal of Medicine style was used as listed in GraphPadPrism 7. Meaning*=P≤0,033; **=P≤0,002; ***=P≤0.001.

[6] = target: T2, VH2VL1-CD8ATD-CD137CSD-CD3zSSD fusion; assay: as above
T2 construct: Chimeric antigen receptor expressed on Jurkat NFAT reporter cells; also called VH2VL1 P329G-CAR
T2 sequence (chain, as listed by the source): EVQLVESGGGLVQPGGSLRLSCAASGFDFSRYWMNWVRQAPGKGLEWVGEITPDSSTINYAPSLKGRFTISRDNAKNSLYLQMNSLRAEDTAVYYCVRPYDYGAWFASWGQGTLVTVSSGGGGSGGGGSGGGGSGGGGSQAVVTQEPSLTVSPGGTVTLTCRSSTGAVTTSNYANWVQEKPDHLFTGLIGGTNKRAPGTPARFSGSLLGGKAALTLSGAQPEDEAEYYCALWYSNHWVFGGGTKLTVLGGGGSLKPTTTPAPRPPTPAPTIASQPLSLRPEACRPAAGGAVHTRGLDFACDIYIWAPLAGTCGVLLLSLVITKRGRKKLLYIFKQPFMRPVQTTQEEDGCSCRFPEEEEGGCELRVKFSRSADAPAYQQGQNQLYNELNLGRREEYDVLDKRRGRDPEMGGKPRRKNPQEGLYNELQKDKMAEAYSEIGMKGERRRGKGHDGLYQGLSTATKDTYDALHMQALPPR
Experimental: as §1

[7] = target: T3, VL1VH3-CD8ATD-CD137CSD-CD3zSSD fusion; assay: as above
T3 construct: Chimeric antigen receptor with the scFv in VL-VH order, expressed on Jurkat NFAT reporter cells; also called VL1VH3 P329G-CAR
T3 sequence (chain, as listed by the source): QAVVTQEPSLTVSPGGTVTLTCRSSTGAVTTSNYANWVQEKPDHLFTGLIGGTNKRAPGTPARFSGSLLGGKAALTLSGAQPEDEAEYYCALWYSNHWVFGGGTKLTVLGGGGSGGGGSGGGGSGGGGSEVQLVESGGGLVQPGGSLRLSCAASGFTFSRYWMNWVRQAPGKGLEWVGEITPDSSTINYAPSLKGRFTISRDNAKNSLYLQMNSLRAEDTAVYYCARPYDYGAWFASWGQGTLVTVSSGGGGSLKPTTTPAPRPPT
Experimental: as §1

[8] = target: T4, VH3VL1-CD8ATD-CD137CSD-CD3zSSD fusion; assay: as above
T4 construct: also called VH3VL1 P329G-CAR
T4 sequence (chain, as listed by the source): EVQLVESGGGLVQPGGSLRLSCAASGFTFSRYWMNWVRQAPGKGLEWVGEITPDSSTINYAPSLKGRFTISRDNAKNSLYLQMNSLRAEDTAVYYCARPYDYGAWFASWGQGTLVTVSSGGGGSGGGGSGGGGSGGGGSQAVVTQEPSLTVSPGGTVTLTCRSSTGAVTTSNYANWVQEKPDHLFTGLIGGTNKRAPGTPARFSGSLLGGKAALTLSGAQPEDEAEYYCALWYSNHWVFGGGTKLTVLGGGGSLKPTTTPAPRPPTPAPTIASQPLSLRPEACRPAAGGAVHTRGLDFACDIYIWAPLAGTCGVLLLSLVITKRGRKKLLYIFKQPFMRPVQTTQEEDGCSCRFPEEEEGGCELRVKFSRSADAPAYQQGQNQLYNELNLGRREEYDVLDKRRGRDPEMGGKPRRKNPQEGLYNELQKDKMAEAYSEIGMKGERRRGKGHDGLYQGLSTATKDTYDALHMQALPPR
Experimental: as §1

[9] = target: T1, VH1VL1-CD8ATD-CD137CSD-CD3zSSD fusion; assay: cell-based or functional assay; remark: listed apart in the source
[10] = target: T2, VH2VL1-CD8ATD-CD137CSD-CD3zSSD fusion; assay: cell-based or functional assay; remark: listed apart in the source
[11] = target: T3, VL1VH3-CD8ATD-CD137CSD-CD3zSSD fusion; assay: cell-based or functional assay; remark: listed apart in the source
[12] = target: T4, VH3VL1-CD8ATD-CD137CSD-CD3zSSD fusion; assay: cell-based or functional assay; remark: listed apart in the source
[13] = target: T1, VH1VL1-CD8ATD-CD137CSD-CD3zSSD fusion; assay: Jurkat NFAT luciferase reporter assay with CD20-positive WSUDLCL2 target cells (5:1); no reporter activation, which the filing uses to exclude unspecific binding; remark: listed apart in the source
Experimental: as §1

[14] = target: T2, VH2VL1-CD8ATD-CD137CSD-CD3zSSD fusion; assay: as above; remark: listed apart in the source
Experimental: as §1

[15] = target: T3, VL1VH3-CD8ATD-CD137CSD-CD3zSSD fusion; assay: as above; remark: listed apart in the source
Experimental: as §1

[16] = target: T4, VH3VL1-CD8ATD-CD137CSD-CD3zSSD fusion; assay: as above; remark: listed apart in the source
Experimental: as §1

Row | EC50 printed in the drawn table (row 'VH1 x VL1') for the Jurkat NFAT reporter assay with WSUDLCL2 cells; it is a fit of a flat curve at background and no activation is seen [1] [pM] | EC50 printed in the drawn table (row 'VH2 x VL1') for the Jurkat NFAT reporter assay with WSUDLCL2 cells; it is a fit of a flat curve at background and no activation is seen [2] [pM] | EC50 printed in the drawn table (row 'VL1 x VH 3') for the Jurkat NFAT reporter assay with WSUDLCL2 cells; it is a fit of a flat curve at background and no activation is seen [3] [pM] | EC50 printed in the drawn table (row 'VH3 x VL1') for the Jurkat NFAT reporter assay with WSUDLCL2 cells; it is a fit of a flat curve at background and no activation is seen [4] [pM] | binding result [5] | binding result [6] | binding result [7] | binding result [8] | EC50 printed in the drawn table (row 'VH1 x VL1') for the Jurkat NFAT reporter assay with WSUDLCL2 cells; it is a fit of a flat curve at background and no activation is seen [9] [pM] | EC50 printed in the drawn table (row 'VH2 x VL1') for the Jurkat NFAT reporter assay with WSUDLCL2 cells; it is a fit of a flat curve at background and no activation is seen [10] [nM] | EC50 printed in the drawn table (row 'VL1 x VH 3') for the Jurkat NFAT reporter assay with WSUDLCL2 cells; it is a fit of a flat curve at background and no activation is seen [11] [pM] | EC50 printed in the drawn table (row 'VH3 x VL1') for the Jurkat NFAT reporter assay with WSUDLCL2 cells; it is a fit of a flat curve at background and no activation is seen [12] [mM] | binding result [13] | binding result [14] | binding result [15] | binding result [16] | Binder
1 | ~2.19 | 0.000119 | ~78.3 | ~85 | no binding (tested: 67 nM) | no binding (tested: 67 nM) | no binding (tested: 67 nM) | no binding (tested: 67 nM) |  |  |  |  |  |  |  |  | anti-CD20 (GA101) wild type IgG1 (antibody, also called GA101 Fc wildtyp) heavy: not shown light: DIVMTQTPLSLPVTPGEPASISCRSSKSLLHSNGITYLYWYLQKPGQSPQLLIYQMSNLVSGVPDRFSGSGSGTDFTLKISRVEAEDVGVYYCAQNLELPYTFGGGTKVEIKRTVAAPSVFIFPPSDEQLKSGTASVVCLLNNFYPREAKVQWKVDNALQSGNSQESVTEQDSKDSTYSLSSTLTLSKADYEKHKVYACEVTHQGLSSPVTKSFNRGEC
2 |  |  |  |  |  |  |  |  | ~0.0485 | ~0 | ~0.000234 | ~1.61e+07 | no binding (tested: 67 nM) | no binding (tested: 67 nM) | no binding (tested: 67 nM) | no binding (tested: 67 nM) | anti-CD20 (GA101) LALA IgG1 (antibody) heavy: not shown light: DIVMTQTPLSLPVTPGEPASISCRSSKSLLHSNGITYLYWYLQKPGQSPQLLIYQMSNLVSGVPDRFSGSGSGTDFTLKISRVEAEDVGVYYCAQNLELPYTFGGGTKVEIKRTVAAPSVFIFPPSDEQLKSGTASVVCLLNNFYPREAKVQWKVDNALQSGNSQESVTEQDSKDSTYSLSSTLTLSKADYEKHKVYACEVTHQGLSSPVTKSFNRGEC
